Test results reported in US20220356210A1, “A SERIES OF INJECTABLE HYDROGELS SELF-ASSEMBLED FROM SHORT PEPTIDES FOR VARIOUS BIOMEDICAL APPLICATIONS” (Agency for Science, Technology and Research, priority 2019, published 2022).
Non-standard residues stand in square brackets, D forms with d. No end group written: not given here.

Experiments:
[1] = Gelation by vial tilting method; assay type: physicochemical; conditions: for Concentration to form the gel: in the presence of a salt; for Minimum concentration to form the gel: without the presence of a salt
Description: The peptide powder was dissolved in water or other aqueous solutions at the required concentrations. Alternatively, the required salt may be added after the peptide aqueous solution is prepared. The hydrogel was formed by mixing the peptide aqueous solution and salt (if required). For example, the solution was vortexed and then incubated to form hydrogel. The hydrogel formed may be stored as formed, or may be dried, for example by freeze drying. Alternatively, the hydrogel may be formed as required. The gelation time was determined by the vial tilting method. […] Rheology experiments were performed at room temperature using a control-strain rheometer (ARES G2, TA instruments). The rheometer is equipped with two sensitive force transducers for torque ranging from 0.05 μN·m to 200 mN·m. The peptide powder was dissolved in water at concentrations ranging from 1.0 to 2.0 (w/v) %. The solution was vortexed and then incubated to form hydrogel. The gel was placed onto parallel-plate geometry (8 mm in diameter). The dynamic storage modulus (G′) and loss modulus (G″) were examined as a function of frequency from 1 to 100 rad/s. The measurements were carried out at a strain amplitude (y) to ensure the linearity of viscoelasticity. Flow sweep (viscosity changes as a function of shear rate) was also performed to study shear thinning properties of hydrogels.

[2] = Rheology, G′ and G″ at frequency of 1 Hz; assay type: physicochemical
Description: The gelation time was determined by the vial tilting method. […] Rheology experiments were performed at room temperature using a control-strain rheometer (ARES G2, TA instruments). The rheometer is equipped with two sensitive force transducers for torque ranging from 0.05 μN·m to 200 mN·m. […] The solution was vortexed and then incubated to form hydrogel. The gel was placed onto parallel-plate geometry (8 mm in diameter). The dynamic storage modulus (G′) and loss modulus (G″) were examined as a function of frequency from 1 to 100 rad/s. The measurements were carried out at a strain amplitude (y) to ensure the linearity of viscoelasticity. Flow sweep (viscosity changes as a function of shear rate) was also performed to study shear thinning properties of hydrogels.

[3] = CD spectra of peptide amphiphiles; assay type: physicochemical; conditions: 1.0 mg/mL, with addition of salt (PBS pH 7.4), room temperature
Description: CD measurements were performed with a Jasco Model J-810 spectropolarimeter (Jasco, Great Dunmow, Essex, UK) using a quartz cuvette with 1 mm pathlength (Hellma, Germany). Spectra were recorded (average of 3 scans) from 240 to 190 nm at a scan speed of 50 nm/min. The ellipticity was derived from the formula: [θ]λ=(M/(N−1)×θλ)/(d×c), where θλ represents observed ellipticity (degrees) at wavelength λ, d represents pathlength (cm), c represents the concentration (g/mL), and [θ]λ represents residue ellipticity (deg cm^2 dmol^−1). Thermal scans were measured with Jasco Model J-810 spectropolarimeter equipped with a peltier temperature controller. The solution was allowed to reach equilibrium for 10 min at room temperature prior to testing.

[4] = Stability of peptide hydrogels in PBS
hMSCs = experiment: Live/Dead staining of hMSCs on or in peptide hydrogel (confocal); assay type: cell-based, human
Description: hMSCs were cultured in MSCGM medium (Lonza, U.S.A.) and incubated at 37° C., 5% CO2. The medium was changed every three days. The cells were harvested with PBS containing 0.025 (w/v) % trypsin and 0.01% EDTA, centrifuged and sub-cultured to passage 4 in MSCGM for 2D culture on the surface of hydrogels or 3D hydrogel encapsulation as described below.
The morphology and viability of hMSCs on the surface of hydrogels and inside 3D peptide hydrogel environment was observed by an inverted confocal laser scanning microscope (CLSM) (CLSM, Carl Zeiss, Germany). Live/Dead cell staining assay (Invitrogen) was used. Briefly, cells cultured on the surfaces of hydrogels in chambered cover glass (NUNC, Denmark) were washed with PBS and incubated in 0.5 mL of PBS containing dyes for 10 min, then visualized by CLSM at excitation wavelengths of 488 nm and 532 nm. All the observations were conducted under the same conditions. For the cells grown in 3D hydrogels, the constructs were cut, followed by the addition of staining agent. The gels were transferred to cover glass and then visualized by CLSM using the same method as described for the cells on the hydrogel surface.

[5] = antimicrobial peptide alone; cited from earlier work
MRSA = conditions: clinically isolated MRSA; cited from earlier work
A. baumannii = conditions: clinically isolated multidrug-resistant A. baumannii; cited from earlier work
VRE = conditions: clinically isolated VRE; cited from earlier work
P. aeruginosa = conditions: clinically isolated multidrug-resistant P. aeruginosa; cited from earlier work
C. neoformans = conditions: clinically isolated yeast C. neoformans; cited from earlier work
rat red blood cells = conditions: cited from earlier work
[6] = In vitro cytotoxicity, MTT assay; assay type: cell-based, human; conditions: human
Description: 1000 μL of HDFs or keratinocytes (10^5 cells per mL) were seeded onto the 12-well Transwell plates (Corning). IIK12 (1%) with various contents of antimicrobial peptides were dissolved in water and incubated at 37° C. overnight and 100 μL of gels were then transferred to the inserts of the Transwell plate. 1 mL of fresh medium was added into the inserts. The plates were incubated for 24 h before proceeding to MTT assay. It is noted that cells without any treatment and Mupirocin (GSK) were used as controls. The data were expressed as mean and standard deviation of three replicates and the tests were repeated 3 times.

[7] = keratitis mouse model; cited from earlier work
[8] = 1.5 wt %, gelation temp. 37 °C, DMEM
[9] = 1.5 wt %, gelation temp. 37 °C, H2O
[10] = 1.5 wt %, gelation temp. R.T., H2O
[11] = 2.0 wt %, gelation temp. 37 °C, H2O

IEIEIRIK (IEIEIRIK-NH2) [IIK8]
Concentration to form the gel [1]: 0.6 % w/v | Gel appearance, gelation in DI water at R.T. ([1]; peptide conc. 1.0 %): clear | Gelation in DI water at 37° C. (via tilting) ([1]; peptide conc. 1.0 %): overnight | Gelation in DI water at R.T. (via tilting), time ([1]; peptide conc. 1.0 %): 1 day, days | Gelation in DI water at 37° C. (via tilting), time ([1]; peptide conc. 1.5 %): ≤ 15 min | Gelation in DI water at R.T. (via tilting), time ([1]; peptide conc. 1.5 %): 30 min | Gelation in DI water at 37° C. (via tilting), time ([1]; peptide conc. 1.5 %, listed as IEIEIRIK): 20 min | Gelation in DI water at 37° C. (via tilting), time ([1]; peptide conc. 2.0 %): 20 min | Gelation in DI water at R.T. (via tilting), time ([1]; peptide conc. 2.0 %): 30 min | Minimum concentration to form the gel [1]: 1.0 % w/v | G′ (storage modulus) [2, 8]: 1206 Pa | G″ (loss modulus) [2, 8]: 172 Pa | G′ (storage modulus) [2, 9]: 707 Pa | G″ (loss modulus) [2, 9]: 32 Pa | G′ (storage modulus) [2, 10]: 125 Pa | G″ (loss modulus) [2, 10]: 22 Pa | G′ (storage modulus) [2, 11]: 1139 Pa | G″ (loss modulus) [2, 11]: 90 Pa | Molecular ellipticity (θM) at the minimum point [3]: −28.9 deg.cm^2dmol^−1 | Stability in PBS ([4]; peptide conc. 1.0 %): Yes | Stability in PBS ([4]; peptide conc. 1.5 %): Yes | Stability in PBS ([4]; peptide conc. 2.0 %): Yes

IELEIRLK (IELEIRLK-NH2) [ILK8]
Concentration to form the gel [1]: 0.6 % w/v | Gelation in DI water at 37° C. (via tilting) ([1]; peptide conc. 1.0 %): overnight | Gelation in DI water at R.T. (via tilting), time ([1]; peptide conc. 1.0 %): 1 day days | Gelation in DI water at 37° C. (via tilting), time ([1]; peptide conc. 1.5 %): 15 min | Gelation in DI water at R.T. (via tilting), time ([1]; peptide conc. 1.5 %): 30 min | Gelation in DI water at 37° C. (via tilting), time ([1]; peptide conc. 2.0 %): 10 min | Gelation in DI water at R.T. (via tilting), time ([1]; peptide conc. 2.0 %): 20 min | Minimum concentration to form the gel [1]: 1.0 % w/v | G′ (storage modulus) [2, 10]: 332 Pa | G″ (loss modulus) [2, 10]: 40 Pa | Molecular ellipticity (θM) at the minimum point [3]: −21.4 deg.cm^2dmol^−1 | Stability in PBS ([4]; peptide conc. 1.0 %): Yes | Stability in PBS ([4]; peptide conc. 1.5 %): Yes | Stability in PBS ([4]; peptide conc. 2.0 %): Yes

IEVEIEVKIRVK (IEVEIEVKIRVK-NH2) [IEV12]
Gelation in DI water at R.T. (via tilting) ([1]; peptide conc. 0.5 %): No | Gelation in DI water at 37° C. (via tilting) ([1]; peptide conc. 1.0, 2.0 %): Gel

IEVEIRVK-NH2 [IVK8, IEVEIRVK]
Viability of encapsulated cells (hMSCs; 1 day after encapsulation): the majority of encapsulated hMSCs remained viable | Viability of cells on the surface of peptide hydrogel (hMSCs; after 24 h attachment): the majority of the cells remained viable

IK8D: D-enantiomer of antimicrobial peptide IRIKIRIK ([dI][dR][dI][dK][dI][dR][dI][dK])
Peptide concentration at which a hydrogel forms [5]: 8 w/v % | MIC (MRSA): 3.9 mg/L | MIC (A. baumannii): 31.3 mg/L | MIC (VRE): 3.9 mg/L | MIC (P. aeruginosa): 15.6 mg/L | MIC (C. neoformans): 7.8 mg/L | HC10 value (the lowest concentration that induced 10% or more hemolysis) (rat red blood cells): 1750 µg/mL

IRIKIRIK-NH2 [IK8L, IRIKIRIK]
viability at 24 h, 1000 µg/mL ([6]; human dermal fibroblasts (HDFs) in 12-well Transwell plates): 22% | viability at 24 h, 125 µg/mL ([6]; human primary keratinocytes in 12-well Transwell plates): > 70% | Toxicity to the eyes [7]: without causing significant toxicity to the eyes | HC10 value (the lowest concentration that induced 10% or more hemolysis) (rat red blood cells): 2000 µg/mL

IRVE (IRVE-NH2)
Gelation in DI water at R.T. (via tilting) ([1]; peptide conc. 10 %): No

IRVEIEVK (IRVEIEVK-NH2) [IRK8]
Gel formation ([1]; concentrations up to 2%): no gel formation | Gelation in DI water at R.T. (via tilting) ([1]; peptide conc. 1.0 %): No | Gelation in DI water at R.T. (via tilting) ([1]; peptide conc. 2.0 %): No

IRVEIK (IRVEIK-NH2)
Gelation in DI water at R.T. (via tilting) ([1]; peptide conc. 1.0 %): No | Gelation in DI water at R.T. (via tilting) ([1]; peptide conc. 2.0 %): No

IRVEIKVE (IRVEIKVE-NH2) [IRE8]
Gelation in DI water at R.T. (via tilting) ([1]; peptide conc. 1.0 %): No | Gel appearance, gelation in DI water at R.T. ([1]; peptide conc. 2.0 %): clear | Gelation in DI water at 37° C. (via tilting), time ([1]; peptide conc. 2.0 %): 1400 min | Gelation in DI water at R.T. (via tilting), time ([1]; peptide conc. 2.0 %): 4300 min | Gelation in DI water at R.T. (via tilting), time ([1]; peptide conc. 2.0 %, listed as IRVEIKVE): 3 days,

IRVEIRVEIRVE (IRVEIRVEIRVE-NH2) [IRV12]
Gelation in DI water at R.T. (via tilting) ([1]; peptide conc. 0.5 %): No | Gel appearance, gelation in DI water at 37° C. ([1]; peptide conc. 1.0, 2.0 %): cloudy | Gelation in DI water at 37° C. (via tilting) ([1]; peptide conc. 1.0, 2.0 %): Gel,

IRVKIEVEIRVK (IRVKIEVEIRVK-NH2) [IVK12]
Lowest concentration at which hydrogels self-assembled ([1]; aqueous solution): 0.6 (w/v) % | Gelation in DI water at 37° C. (via tilting) ([1]; peptide conc. 0.6, 1.0 %): Gel
